Results on 4 molecules are retold here after patent US20190359687A1 (Bayer, published 2019).

Positions count from the first letter of the chain named. No end group written: not given here. *: point of attachment. Biotin = O=C1N[C@H]2[C@H](CS[C@H]2CCCCC(=O)*)N1

Assay [1] deals with T1, human glycophorin A in the red blood cell membrane (human, UniProt P02724 20-150).
T1 construct: whole, on cells; used for intact RBC, isolated RBC membranes and transfected cells; the assay field tells which; also called GPA; hGPA
T1 sequence (looked up): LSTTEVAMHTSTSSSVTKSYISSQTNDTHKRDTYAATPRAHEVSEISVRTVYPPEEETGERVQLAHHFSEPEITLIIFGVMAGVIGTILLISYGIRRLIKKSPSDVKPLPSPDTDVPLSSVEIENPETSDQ
The assay can be described thus: SPR, human RBC membranes, Fab. (In general: Surface plasmon resonance follows binding to a sensor surface in real time, without labels.)
Description: Kinetic analysis of the antibody binding to human red blood cell membranes was also performed using surface plasmon resonance (SPR) using a Biacore instrument. In this assay membranes prepared from human red blood cells were attached to a L1 sensor matrix and antibodies were flowed over the RBC membranes.

Another assay concerns the target T2, GP13 (human).
T2 peptide: Biotin-PPEEETGE
The assay can be described thus: peptide ELISA, summary of Table 23. Background: An ELISA detects its analyte on a solid surface through an enzyme-linked reagent.

Another assay has as its target T3, GP11 (human).
T3 peptide: Biotin-VYPPEEET
The assay can be described thus: peptide ELISA, summary of Table 23.

For a further assay, the target named is T4, GP7 (human).
T4 peptide: Biotin-SVRTVYPP
The assay is described as follows: peptide ELISA, summary of Table 23.

Another assay has as its target T5, GP12 (human).
T5 peptide: Biotin-YPPEEETG
The assay is described as follows: peptide ELISA, summary of Table 23.

The next assay concerns the target T6, GP10 (human).
T6 peptide: Biotin-TVYPPEEE
The assay is described as follows: peptide ELISA, summary of Table 23.

Another assay deals with T7, GP5-16 (human, biotin at the N-terminus).
T7 construct: GP5 with alanine at position 16 (E16A), already in the entry
T7 peptide: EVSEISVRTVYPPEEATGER
The assay is described as follows: ELISA, biotin-peptide on streptavidin plate, Fab 0.5 ug/ml.

The target of a further assay is T8, GP5-17 (human, biotin at the N-terminus).
T8 construct: GP5 with alanine at position 17 (T17A), already in the entry
T8 peptide: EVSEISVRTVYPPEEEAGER
Described as above.

Another assay addresses T9, GP5-6 (human, biotin at the N-terminus).
T9 construct: GP5 with alanine at position 6 (S6A), already in the entry
T9 peptide: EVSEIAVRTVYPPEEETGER
The assay is described as above.

The target of a further assay is T10, GP5-11 (human, biotin at the N-terminus).
T10 construct: GP5 with alanine at position 11 (Y11A), already in the entry
T10 peptide: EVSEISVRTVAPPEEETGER
The assay is described as above.

The next assay addresses T11, GP5-18 (human, biotin at the N-terminus).
T11 construct: GP5 with alanine at position 18 (G18A), already in the entry
T11 peptide: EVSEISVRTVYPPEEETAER
Described as above.

A further assay deals with T12, GP5-20 (human, biotin at the N-terminus).
T12 construct: GP5 with alanine at position 20 (R20A), already in the entry
T12 peptide: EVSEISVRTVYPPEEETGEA
Described as above.

A further assay has as its target T13, GP5-9 (human, biotin at the N-terminus).
T13 construct: GP5 with alanine at position 9 (T9A), already in the entry
T13 peptide: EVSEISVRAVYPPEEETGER
Described as above.

The target in another assay is T14, GP5-10 (human, biotin at the N-terminus).
T14 construct: GP5 with alanine at position 10 (V10A), already in the entry
T14 peptide: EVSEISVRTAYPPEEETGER
The description is as above.

Another assay addresses T15, GP5-19 (human, biotin at the N-terminus).
T15 construct: GP5 with alanine at position 19 (E19A), already in the entry
T15 peptide: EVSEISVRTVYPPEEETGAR
Described as above.

The next assay deals with T16, GP5-15 (human, biotin at the N-terminus).
T16 construct: GP5 with alanine at position 15 (E15A), already in the entry
T16 peptide: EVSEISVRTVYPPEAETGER
Described as above.

The next assay deals with T17, GP5-3 (human, biotin at the N-terminus).
T17 construct: GP5 with alanine at position 3 (S3A), already in the entry
T17 peptide: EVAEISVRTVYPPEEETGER
The description is as above.

The next assay deals with T18, GP5-12 (human, biotin at the N-terminus).
T18 construct: GP5 with alanine at position 12 (P12A), already in the entry
T18 peptide: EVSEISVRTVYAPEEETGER
The description is as above.

Another assay concerns the target T19, GP5-5 (human, biotin at the N-terminus).
T19 construct: GP5 with alanine at position 5 (I5A), already in the entry
T19 peptide: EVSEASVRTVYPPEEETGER
The description is as above.

The target in the next assay is T20, GP5-7 (human, biotin at the N-terminus).
T20 construct: GP5 with alanine at position 7 (V7A), already in the entry
T20 peptide: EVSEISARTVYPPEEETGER
The assay is described as above.

In a further assay the target is T21, GP5-4 (human, biotin at the N-terminus).
T21 construct: GP5 with alanine at position 4 (E4A), already in the entry
T21 peptide: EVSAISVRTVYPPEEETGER
The description is as above.

For a further assay, the target named is T22, GP5-13 (human, biotin at the N-terminus).
T22 construct: GP5 with alanine at position 13 (P13A), already in the entry
T22 peptide: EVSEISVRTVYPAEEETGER
Described as above.

The target in a further assay is T23, GP5-2 (human, biotin at the N-terminus).
T23 construct: GP5 with alanine at position 2 (V2A), already in the entry
T23 peptide: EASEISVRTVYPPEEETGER
Described as above.

The next assay addresses T24, GP5-8 (human, biotin at the N-terminus).
T24 construct: GP5 with alanine at position 8 (R8A), already in the entry
T24 peptide: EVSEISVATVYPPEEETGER
The description is as above.

The target in a further assay is T25, GP5-1 (human, biotin at the N-terminus).
T25 construct: GP5 with alanine at position 1 (E1A), already in the entry
T25 peptide: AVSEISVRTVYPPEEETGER
The assay is described as above.

The next assay concerns the target T26, GP5-14 (human, biotin at the N-terminus).
T26 construct: GP5 with alanine at position 14 (E14A), already in the entry
T26 peptide: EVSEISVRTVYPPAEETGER
The description is as above.

The target in assay [2] is T1, human glycophorin A in the red blood …. The assay is described as follows: FACS, hu RBC. On the technique in general: In flow cytometry, cells or beads pass a laser one at a time.
Description: (§1) Hybridomas were generated from the spleen cells of these mice and these hybriomas were screened first by fluorescence activated cell sorting (FACS) against isolated human and monkey (Cynomolgus monkey and Rhesus monkey) red blood cells (RBC) and then by ELISA against purified human glycophorin A protein (GPA). Isolated RBC were prepared from whole blood from normal human, cynomolgus monkey, and beagle dog, were anticoagulant with sodium heparin (Bioreclamation). 2-3 mL of whole blood was loaded gently on the top of 3 mL Ficoll Plus (Sigma Aldrich) then centrifuged at 500 g for 20 min at room temperature (RT). The RBC pellets were washed 3 times with 10 mL of PBS, and centrifuge 400 g for 10 min at RT. RBC pellets were re-suspended in PBS at the same total volume as the original blood volume to achieve the same RBC cell density as in whole blood and stored at 4° C. Purified human glycophorin A protein was obtained from Sigma Aldrich and coated on ELISA plates at 2 ug/ml. Binding of antibodies to human GPA was detected using appropriate secondary antibodies using methods well known in the art.
The target of assay [3] is T27, asialo hGPA (desialylated human GPA) (human, UniProt P02724 20-150, desialylated).
T27 construct: mature; also called asialo-GPA
T27 sequence (looked up): T1 sequence (looked up)
The assay is described as follows: ELISA, purified IgG.
Description: (§2) The “Sigma GPA” is a crude preparation of human GPA extracted from human red blood cells and is therefore representative of the highly glycosylated form of the native protein.
(§3) EC 50 values were determined from a dilution curve of the antibody. Sigma GPA is partially purified GPA extracted from human red blood cells and purchased from Sigma Chemical Company (cat # G5017), asialo hGPA is human GPA that was desialylated and ECD is the recombinantly expressed ectodomain which is the extracellular portion of GPA.

Assay [4] deals with T28, purified human glycophorin A protein (Sigma, cat # G5017) (human, UniProt P02724 20-150).
T28 construct: mature; also called Sigma hGPA; Sigma GPA
T28 sequence (looked up): T1 sequence (looked up)
The assay can be described thus: ELISA, purified IgG.
Description: as §2, §3

The target in assay [5] is T29, recombinant human GPA ectodomain (human, UniProt P02724 20-91).
T29 construct: also called recombinant hGPA ECD; recGPA
T29 sequence: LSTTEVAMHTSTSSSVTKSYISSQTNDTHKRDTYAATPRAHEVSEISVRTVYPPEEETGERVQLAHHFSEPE
The assay can be described thus: ELISA, purified IgG.
Description: as §2, §3

The target of another assay is T30, dog red blood cells (dog).
T30 construct: also called dog RBC
The assay is described as follows: FACS, dog RBC.

Assay [6] deals with T28, purified human glycophorin A protein …. The assay can be described thus: ELISA, hGPA.
Description: as §1
In assay [7] the target is T29, recombinant human GPA ectodomain. The assay can be described thus: SPR, IgG.
Assay [8] addresses T31, Cynomolgus monkey glycophorin A on Cynomolgus monkey red blood cells (Cynomolgus monkey).
T31 construct: whole, on cells; also called Cyno RBC; Cyno GPA
The assay can be described thus: FACS, Cyno RBC.
Description: as §1

Excerpt for GP10: (§4) These peptides were attached to the surface of a streptavidin coated plate via a biotin moiety that was present at the N-terminus of each peptide.
Excerpt for GP11: as §4
Excerpt for GP12: as §4
Excerpt for GP13: as §4
Excerpt for GP7: as §4
Description for dog red blood cells: as §1

B1: TPP-5907 Fab (Fab, V domains shown)
VH: EVQLVQSGAEVKKPGASVKVSCKASGYTFTTYTIHWVRQAPGQGLEWMGYINPGSGYTRYNPKFKGRVTMTRDKSTSTAYMELRSLRSDDTAVYYCQTGTRDYWGQGTTVTVSS
VL: DIQLTQSPSFLSASVGDRVTITCRASSSVSYIYWFQQKPGKAPKLLIYATSTLQSGVPSRFSGSGSGTEYTLTISSLQPEDFATYYCHQRNSFPYTFGQGTKLEIKR
For B1, the “fold improvement of affinity against the parental antibody” value in [1] was about 200 fold.

B2: TPP-7790 Fab (Fab, V domains shown)
VH: B1 VH with T33A, G54S, G66H, Q97W
VL: DIQLTQSPSFLSASVGDRVTITCRASSSVRYIYWFQQKPGKAPKLLIYATSFLQSGVPSRFSGSGSGTEYTLTISSLQPEDFATYYCHQRNSFPYTFGQGTKLEIK
notes: Tested as Fab with a 6xHIS tag
As for B2, the binding result in the assay with GP13, with GP11, in the assay with GP7, with GP12 and with GP10 was “no binding” in each case. The “binding signal (ELISA)” value in the assay with GP5-16 was 6540; with GP5-17, 6870; with GP5-6, 6520; with GP5-11, 1; in the assay with GP5-18, 6400; with GP5-20 it was 6440. The “binding signal (ELISA)” value was 6810 with GP5-9; 5910 in the assay with GP5-10; 6470 with GP5-19; 6720 in the assay with GP5-15; 6680 with GP5-3; 6450 with GP5-12. The “binding signal (ELISA)” value in the assay with GP5-5 came out at 6270; in the assay with GP5-7, 6700; in the assay with GP5-4 it was 6540; in the assay with GP5-13, 6570; with GP5-2 it was 6360; with GP5-8, 6790. In addition, the “binding signal (ELISA)” value in the assay with GP5-1 was 6210; in the assay with GP5-14 it was 1280.

B3: TPP-7792 Fab (Fab, V domains shown)
VH: B1 VH with T33A, G54S, Q97W
VL: B2 VL with L53R
notes: as for B2
B3: the binding result with GP13, in the assay with GP11, in the assay with GP7, in the assay with GP12 and in the assay with GP10 was “no binding” each time. The “binding signal (ELISA)” value stood at 6680 with GP5-16; 7410 in the assay with GP5-17; 6660 with GP5-6; 2 in the assay with GP5-11; 7150 in the assay with GP5-18; 7170 with GP5-20. For the same molecule, the “binding signal (ELISA)” value was found to be 7270 with GP5-9; 6210 in the assay with GP5-10; 6980 with GP5-19; 7250 in the assay with GP5-15; 7370 with GP5-3; 6790 in the assay with GP5-12. In addition, the “binding signal (ELISA)” value in the assay with GP5-5 was 7400; with GP5-7 it was 6690; with GP5-4, 6630; with GP5-13, 6960; in the assay with GP5-2 it was 6700; with GP5-8, 6700. Besides, the entries for the “binding signal (ELISA)” value in the assay with GP5-1 and with GP5-14 were 6800 and 2670, respectively.

B4: 13G7G1/C3 (antibody, V domains shown)
VH: RVQLQQSGAELARPGASVKMSCKASGYTFTNYAMHWVKQRPGQGLEWIGYINPKSDNTNYNQKFKDKATLTTDKSSATAYMQLSSLTSDDSAVYYCQTGTRDYWGQGTTLTVSS
VL: HIVLTQSPAIMSASPGEKVTIFCSASSSITYVYWFQQKPGTSPKLWIYSTSSLPSGVPARFSGSGSGTSYSLTISRMEAEDAATYYCHQRNSYPFTFGSGTKLEIK
notes: as m8; also called TPP-3423
One may read the EC50 as the concentration needed to bring the measured effect to its halfway point. A word on the Kd: it is the free concentration of one partner at which half of the binding sites on the other are occupied at equilibrium, for simple one-to-one binding. Usually koff stands for a measure of how fast the partners let go of each other. A word on the kon: it is the second-order rate constant of association. A word on the t½: it is how long it takes for the measured level to halve. In the case of B4, the FACS signal in [2] was 2880 relative flourescence units; with dog red blood cells it was 1.14 relative flourescence units; in [8] it was 294 relative flourescence units. In addition, the EC50 was found to be 1.24 nM in [3], 1.45 nM in [4], 1.43 nM in [5] and 0.402 nM in assay [6]. In addition, the Kd in [7] was 5.3 nM. For the same molecule, the koff in [7] is 0.000405 s⁻¹. In assay [7], the kon is 76400 M⁻¹ s⁻¹. Further, the t½ in [7] came to 28.5 min.
